Substitutions are numbered along the chain they refer to.
B1: 嵌合抗体SM03 (chimeric anti-CD22 antibody SM03, human IgG1/human Kappa, variable regions modified at the N- and C-termini) (antibody, V domains shown)
VH: QVQLQESGGGLVKPGGSLKLSCAASGFAFSIYDMSWVRQWPEKRLEWVAYISSGGGTTYYPDTVKGRFTISRDNAKNTLYLQMSSLKSEDTAMYYCARHSGYGSSYGVLFAYWGQGTLVTVSS
VL: DIQLTQTTSSLSASLGDRVTISCRASQDISNYLNWYQQKPDGTVKLLIYYTSILHSGVPSRFSGSGSGTDYSLTISNLEQEDFATYFCQQGNTLPWTFGGGTKLEIKR
notes: Expressed in SP2/0 cells, purified on Protein A; also called 嵌合单克隆抗体SM03; SM03试产第一批抗体
B2: 嵌合抗体SM03的鼠源母抗体 (murine parent antibody of SM03) (antibody, V domains shown)
VH: B1 VH with Q1E, Q5V, S123A
VL: DIQMTQTTSSLSASLGDRVTISCRASQDISNYLNWYQQKPDGTVKLLIYYTSILHSGVPSRFSGSGSGTDYSLTISNLEQEDFATYFCQQGNTLPWTFGGGTKLEIK
notes: Whole mouse hybridoma antibody (mouse IgG heavy chain, kappa light chain by the cloning primers); also called 鼠源抗体; FITC-鼠源母抗体偶联物

Assays:
[1] = target: T1, CD22抗原 (CD22 on Raji human lymphoma cells) (human, UniProt P20273 20-847); assay: flow cytometry on Raji human lymphoma cells, four purified batches of different production and storage time
T1 construct: whole, on cells; The assays are on Raji cells; also called Raji人淋巴瘤细胞; Raji细胞
T1 sequence (looked up): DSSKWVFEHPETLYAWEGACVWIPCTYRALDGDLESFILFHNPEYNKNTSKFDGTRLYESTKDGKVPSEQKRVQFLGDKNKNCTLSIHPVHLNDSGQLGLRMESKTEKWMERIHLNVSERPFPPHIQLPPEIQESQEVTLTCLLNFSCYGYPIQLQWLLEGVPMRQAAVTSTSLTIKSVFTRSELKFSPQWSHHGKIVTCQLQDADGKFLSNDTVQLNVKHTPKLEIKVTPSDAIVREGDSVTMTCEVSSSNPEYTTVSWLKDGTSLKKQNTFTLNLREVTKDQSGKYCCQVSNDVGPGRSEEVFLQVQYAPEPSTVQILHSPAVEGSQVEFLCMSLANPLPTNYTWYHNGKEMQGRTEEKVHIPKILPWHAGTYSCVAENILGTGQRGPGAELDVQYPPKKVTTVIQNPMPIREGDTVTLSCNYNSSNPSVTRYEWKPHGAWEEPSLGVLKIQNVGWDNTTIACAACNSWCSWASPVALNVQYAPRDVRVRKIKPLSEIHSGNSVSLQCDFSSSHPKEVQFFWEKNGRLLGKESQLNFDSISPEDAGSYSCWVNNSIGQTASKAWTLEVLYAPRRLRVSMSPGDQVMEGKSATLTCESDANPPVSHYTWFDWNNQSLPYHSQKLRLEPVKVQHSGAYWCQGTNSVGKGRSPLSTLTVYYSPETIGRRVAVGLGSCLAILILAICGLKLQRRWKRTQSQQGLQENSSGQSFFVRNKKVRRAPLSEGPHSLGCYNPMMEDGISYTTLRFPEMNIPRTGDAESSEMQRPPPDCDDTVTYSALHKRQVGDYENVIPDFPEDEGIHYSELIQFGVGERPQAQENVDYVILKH

[2] = target: T1, CD22抗原 (CD22 on Raji human lymphoma …); assay: competitive flow cytometry on Raji cells; unlabelled murine parent antibody as competitor of its FITC conjugate

Binder | binding result [1] | binding result [2]
B1 | binds | –
B2 | – | binds

From patent CN1542019A (CHINA ANTIBODY PHARMACY CO LTD, dated 2004)
